Measurements published in article PMC12421883.

Biological target: M. tuberculosis LamA (MmpS3, Rv2198c) fused to a 3X-FLAG tag at the carboxy terminus (M. tuberculosis)
Test: SDS-PAGE with western blot

Substance: M. tuberculosis LamA (MmpS3, Rv2198c) fused to a 3X-FLAG tag at the carboxy terminus (natural protein)
- stoichiometry N: 2
